Measured values: the RNAGym collection of RNA variant scans (doi:10.7554/elife.90254)

B1: LINE1-full (parent)
chain: UACGUAGGUGGUUUUCCCCUGAUAGUGCUAAGGGGGCCUGGAAGUUUGGACUGGGCAGAGCUCAACACAGCGUGGCAAAGUGGCUGUGGCUAGACUGCCUCUCUGGAUUCCUCGUCACUCAGCAGGGCAUCUCUGAGAGAAAUGCC

Variants of: B1
Assay: self-cleavage, relative activity (ratio to wild type); higher = more cleavage; in vitro, sequencing; the parent is a self-cleaving ribozyme

| Variant | self-cleavage |
| --- | --- |
| AACGUAGGUGGUUUUCCCCUGAUAGUGCUAAGGGGGCCUGGAAGUUUGGACUGGGCAGAGCUCAACACAGCGUGGCAAAGUGGCUGUGGCUAGACUGCCUCUCUGGGUUCCUCGUCACUCAGCAGGGCAUCUCUGAGAGAAAUGCC [U1A A107G] | 1.67 |
| AACGUAGGUGGUUUUCCCCUGAUAGUGCUAAGGGGGCCUGGAAGUUUGGACUGGGCAGAGCUCAACACAGCGUGGCAAAGUGGCGGUGGCUAGACUGCCUCUCUGGAUUCCUCGUCACUCAGCAGGGCAUCUCUGAGAGAAAUGCC [U1A U85G] | 0.12 |
| AACGUAGGUGGUUUUCCCCUGAUAGUGCUAAGGGGGCCUGGAAGUUUGGACUGGGCAGAGCUCAACACAGCGUGGCAAAGUGGCUGCGGCUAGACUGCCUCUCUGGAUUCCUCGUCACUCAGCAGGGCAUCUCUGAGAGAAAUGCC [U1A U87C] | 0.5 |
| AACGUAGGUGGUUUUCCCCUGAUAGUGCUAAGGGGGCCUGGAAGUUUGGACUGGGCAGAGCUCAACCCAGCGUGGCAAAGUGGCUGUGGCUAGACUGCCUCUCUGGAUUCCUCGUCACUCAGCAGGGCAUCUCUGAGAGAAAUGCC [U1A A67C] | 0.3 |
| AACGUAGGUGGUUUUCCCCUGAUAGUGCUAAGGGGGCCUGGAAGUUUGGACUGGGCAGAGCUCAACACACCGUGGCAAAGUGGCUGUGGCUAGACUGCCUCUCUGGAUUCCUCGUCACUCAGCAGGGCAUCUCUGAGAGAAAUGCC [U1A G70C] | 0.43 |
| AACGUAGGUGGUUUUCCCCUGAUAGUGCUAAGGGGGCCUGGAAGUUUGGACUGGGCAGAGCUCAACACAGCGUGGCAAAGUGGCUGUGGCUAGACUACCUCUCUGGAUUCCUCGUCACUCAGCAGGGCAUCUCUGAGAGAAAUGCC [U1A G97A] | 0.38 |
| AACGUAGGUGGUUUUCCCCUGAUAGUGCUAAGGGGGCCUGGAAGUGUGGACUGGGCAGAGCUCAACACAGCGUGGCAAAGUGGCUGUGGCUAGACUGCCUCUCUGGAUUCCUCGUCACUCAGCAGGGCAUCUCUGAGAGAAAUGCC [U1A U46G] | 0.96 |
| AACGUAGGUGAUUUUCCCCUGAUAGUGCUAAGGGGGCCUGGAAGUUUGGACUGGGCAGAGCUCAACACAGCGUGGCAAAGUGGCUGUGGCUAGACUGCCUCUCUGGAUUCCUCGUCACUCAGCAGGGCAUCUCUGAGAGAAAUGCC [U1A G11A] | 1.76 |
| AACGUAGGUGGUUUUCCCCUGACAGUGCUAAGGGGGCCUGGAAGUUUGGACUGGGCAGAGCUCAACACAGCGUGGCAAAGUGGCUGUGGCUAGACUGCCUCUCUGGAUUCCUCGUCACUCAGCAGGGCAUCUCUGAGAGAAAUGCC [U1A U23C] | 2.04 |
| AACGUAGGUGGUUUUCCCCUGAUAGUGCUAAGGGGGCCUGGAAGUUUGGGCUGGGCAGAGCUCAACACAGCGUGGCAAAGUGGCUGUGGCUAGACUGCCUCUCUGGAUUCCUCGUCACUCAGCAGGGCAUCUCUGAGAGAAAUGCC [U1A A50G] | 0.75 |
| AACGUAGGUGGUUUUCCCCUGAUAGUGCUAAGGGGGCCUGGAAGUUUGGACUGGGCAGAGUUCAACACAGCGUGGCAAAGUGGCUGUGGCUAGACUGCCUCUCUGGAUUCCUCGUCACUCAGCAGGGCAUCUCUGAGAGAAAUGCC [U1A C61U] | 0.08 |
| AACGUAGGUGGUUUUCCCCUGAUAGUGCUAAGGGGGCCUGGAAGUUUGGACUGGGCAGAGCUCAACACAGCGUGGCAAAGUGGUUGUGGCUAGACUGCCUCUCUGGAUUCCUCGUCACUCAGCAGGGCAUCUCUGAGAGAAAUGCC [U1A C84U] | 0.22 |
| AACGUAGGUGGUUUUCCCCUGAUAGCGCUAAGGGGGCCUGGAAGUUUGGACUGGGCAGAGCUCAACACAGCGUGGCAAAGUGGCUGUGGCUAGACUGCCUCUCUGGAUUCCUCGUCACUCAGCAGGGCAUCUCUGAGAGAAAUGCC [U1A U26C] | 1.93 |
| AACGUAGGUGGUUUUCCCCUGAUAGUGCUAAGGGGGCCUGGAAGUUUGGACUGGGCAGAGCUCAACACAGCGUGGCAAAGUGGCUGUGGCUAGACUGCCUCUCUGGAUUCCUCGUCACUCAGCAGGGCAUCUCUGAGAGAUAUGCC [U1A A141U] | 1.42 |
| AACGUAGGUGGUUUUCCCCUGAUAGUGCUAAGGGGGCCUAGAAGUUUGGACUGGGCAGAGCUCAACACAGCGUGGCAAAGUGGCUGUGGCUAGACUGCCUCUCUGGAUUCCUCGUCACUCAGCAGGGCAUCUCUGAGAGAAAUGCC [U1A G40A] | 1.26 |
| AACGUAGGUGGUUUUCCCCUGAUAGUGCUAAGGGGGCCUGGAAGUUUGGACUGGGCAGAGCUCAACACAGCGUGGCAAAGUGGCUGUGGCCAGACUGCCUCUCUGGAUUCCUCGUCACUCAGCAGGGCAUCUCUGAGAGAAAUGCC [U1A U91C] | 0.15 |
| AACGUAGGUGGUUUUCCCCUGAUAGUGCUAAGGGGGCCUGGAAGUUUGGACUGGGCAGAGCUCAACACAGCGUGGCAAAGUGGCUGUGGCAAGACUGCCUCUCUGGAUUCCUCGUCACUCAGCAGGGCAUCUCUGAGAGAAAUGCC [U1A U91A] | 1.27 |
| AACGUAGGUGGUUUUCCCCUGAUAGUGCUAAGGGGGCCUGGAAGUUUGGACUGGGCAGAGCUCAACACAGCGUGGCAAAGUGGCUGUGGCUAGACUGCCUCUCUGGAUUCCUCGUCACUCAGCAGGGCAUCUCUGAGGGAAAUGCC [U1A A138G] | 1.05 |
| AACGUAGGUGGUUUUCCCCUGAUAGUGCUAAGGGGGCCUGGAAGUUUGGACUGGGCAGAGCUCGACACAGCGUGGCAAAGUGGCUGUGGCUAGACUGCCUCUCUGGAUUCCUCGUCACUCAGCAGGGCAUCUCUGAGAGAAAUGCC [U1A A64G] | 0.64 |
| AACGUAGGUGGUUUUCCCCUGAUAGUGCUAAGGGGGCCUGGGAGUUUGGACUGGGCAGAGCUCAACACAGCGUGGCAAAGUGGCUGUGGCUAGACUGCCUCUCUGGAUUCCUCGUCACUCAGCAGGGCAUCUCUGAGAGAAAUGCC [U1A A42G] | 1.35 |

| Variant | self-cleavage |
| --- | --- |
| AACGUAGGUGGUUUUCCCCUGAUAGUGCUAAGGGGGCCUGGAAGUUUGGACUGGGCAGAGCUCAACACAGCGAGGCAAAGUGGCUGUGGCUAGACUGCCUCUCUGGAUUCCUCGUCACUCAGCAGGGCAUCUCUGAGAGAAAUGCC [U1A U73A] | 1.67 |
| AACGUAGGUGGGUUUCCCCUGAUAGUGCUAAGGGGGCCUGGAAGUUUGGACUGGGCAGAGCUCAACACAGCGUGGCAAAGUGGCUGUGGCUAGACUGCCUCUCUGGAUUCCUCGUCACUCAGCAGGGCAUCUCUGAGAGAAAUGCC [U1A U12G] | 0.97 |
| AACGUAGGUGGUUUUCCCCUGAUAGUGCUAAGGGGGCCUGGAAGUUUGGACCGGGCAGAGCUCAACACAGCGUGGCAAAGUGGCUGUGGCUAGACUGCCUCUCUGGAUUCCUCGUCACUCAGCAGGGCAUCUCUGAGAGAAAUGCC [U1A U52C] | 1.64 |
| AACGUAGGUGGUUUUCCCCUGAUAGUGCUAAGGGGGCCUGGAAGUUUGGACUGGGCAGAGCUCAACACAGCGUGGCAAAGUGGCUGUGGCUAGACUGCCUCUCUGGAUUCCUCGUCUCUCAGCAGGGCAUCUCUGAGAGAAAUGCC [U1A A117U] | 1.48 |
| AACGUAGGUGGUUUUCCCCUGAUUGUGCUAAGGGGGCCUGGAAGUUUGGACUGGGCAGAGCUCAACACAGCGUGGCAAAGUGGCUGUGGCUAGACUGCCUCUCUGGAUUCCUCGUCACUCAGCAGGGCAUCUCUGAGAGAAAUGCC [U1A A24U] | 1.28 |
| AACGUAGGUGGUUUUCCCCUGAUAGUGCUAAGGGGGCCUGGAAGUUCGGACUGGGCAGAGCUCAACACAGCGUGGCAAAGUGGCUGUGGCUAGACUGCCUCUCUGGAUUCCUCGUCACUCAGCAGGGCAUCUCUGAGAGAAAUGCC [U1A U47C] | 1.02 |
| AACGUAGGUGGUUUUCCCCUGAUAGUGCUAAGGGGGCCUGGAAGUUGGGACUGGGCAGAGCUCAACACAGCGUGGCAAAGUGGCUGUGGCUAGACUGCCUCUCUGGAUUCCUCGUCACUCAGCAGGGCAUCUCUGAGAGAAAUGCC [U1A U47G] | 1.53 |
| AACGUAGGUGGUUUUCCCCUGAUAGUGCUAAGGGGGCCUGGAAGUUUGGACUGGGCAGAGCUCAACACAGCGUGGCAAAGUGGCUGUGGCUAGACUGCCUCUCUGAAUUCCUCGUCACUCAGCAGGGCAUCUCUGAGAGAAAUGCC [U1A G106A] | 1.44 |
| AACGUAGGUGGUUUUCCCCUGAUAGUGCUAAGGGGGCCUGGAAGUUUGGACUGGGCAGAGCUCAACACAGCGUGGCAAAGUGGCUGUGGCUAGACUGCCUCUCUGGAUUCCUCGUCACUCAGCAGGGCAUCUCUGAGAGAAAUGCC [U1A] | 1.17 |
| AACGUAGGUGGUUUUCCCCUGAUAGUGCUAAGGGGGCCUGGAUGUUUGGACUGGGCAGAGCUCAACACAGCGUGGCAAAGUGGCUGUGGCUAGACUGCCUCUCUGGAUUCCUCGUCACUCAGCAGGGCAUCUCUGAGAGAAAUGCC [U1A A43U] | 0.68 |
| AACGUAGGUGGUUUUCCCCUGAUAGUGCUAAGGGGGCCUGGAAGUUUGGACUGGGCAGAGCUCAACACAGCGUGGCAAGGUGGCUGUGGCUAGACUGCCUCUCUGGAUUCCUCGUCACUCAGCAGGGCAUCUCUGAGAGAAAUGCC [U1A A79G] | 1.31 |
| AACGUAGGUGGUUUUCCCCUGAUAGUGCUAAGGGGGCCUGGAAGUUUGGACUGGGCAGAGCUCAACACAGCGUGGCAAUGUGGCUGUGGCUAGACUGCCUCUCUGGAUUCCUCGUCACUCAGCAGGGCAUCUCUGAGAGAAAUGCC [U1A A79U] | 0.91 |
| AACGUAGGUGGUUUUCCCCUGAUAGUGCUAAGGGGGCCUGGAAGUUUGGACUGGGCAGAGCUCAACACAGCGUGGCAAAGUGGCUGUGGCUAGACUGCCUCUCUGGAUUCCUCGUCACUCAGCAGGCCAUCUCUGAGAGAAAUGCC [U1A G127C] | 1.51 |
| AACGUAGGUGGUUUUCCCCUGAUAGUGCUAAGGGGGCCUGGAAGUUUGGACUGGGCAGAGCUCAACACAGCGUGGCAAAGUGGCUGUGGCUAGACUGCCUCUCUGGAUUCCUCGUCACUCAGCAGCGCAUCUCUGAGAGAAAUGCC [U1A G126C] | 1.06 |
| AACGUAGGUGGUUUUCCCCUGAUAGUGCUAGGGGGGCCUGGAAGUUUGGACUGGGCAGAGCUCAACACAGCGUGGCAAAGUGGCUGUGGCUAGACUGCCUCUCUGGAUUCCUCGUCACUCAGCAGGGCAUCUCUGAGAGAAAUGCC [U1A A31G] | 1.26 |
| AACGUAGGUGGUCUUCCCCUGAUAGUGCUAAGGGGGCCUGGAAGUUUGGACUGGGCAGAGCUCAACACAGCGUGGCAAAGUGGCUGUGGCUAGACUGCCUCUCUGGAUUCCUCGUCACUCAGCAGGGCAUCUCUGAGAGAAAUGCC [U1A U13C] | 0.91 |
| AACGUAGGUGGUUUUCCCCUGAUAGUGCUAAGGGGGCCUGGAAGUUUGGACUGGGCAGAGCUCAACACAGCGUGGCAAAGUGGCUGUGGCUAGACUGCCUCUCUGGAUUCCUCGUCACUCAGCAGGGCCUCUCUGAGAGAAAUGCC [U1A A129C] | 2.51 |
| AACGUAGGUGGUUUUCCCCAGAUAGUGCUAAGGGGGCCUGGAAGUUUGGACUGGGCAGAGCUCAACACAGCGUGGCAAAGUGGCUGUGGCUAGACUGCCUCUCUGGAUUCCUCGUCACUCAGCAGGGCAUCUCUGAGAGAAAUGCC [U1A U20A] | 0.81 |
| AACGUAGGUGGUUUUCCCCUGAUACUGCUAAGGGGGCCUGGAAGUUUGGACUGGGCAGAGCUCAACACAGCGUGGCAAAGUGGCUGUGGCUAGACUGCCUCUCUGGAUUCCUCGUCACUCAGCAGGGCAUCUCUGAGAGAAAUGCC [U1A G25C] | 1.2 |
